Publication PMC8809517, “Cofactor-independent RNA editing by a synthetic S-type PPR protein”

Columns and labels:
Assay in all cases: high-throughput RNA pulldown from lysate on Ni-NTA beads; HRP: 50 mM Tris pH 8, 150 mM NaCl, 1 mM beta-mercaptoethanol, 50 ug/ml BSA, 3 ug/ml yeast RNA, 0.5% heparin; ITC and FP: Tris pH 8, 200 mM KCl, 5% glycerol; MST: 50 mM Tris pH 8, 200 mM NaCl, 1 mM DTT, BSA, heparin, 0.05% Tween 20
Conditions in all cases: tags: N-terminal His-eGFP
[1] = biological target: T1, GFP-9S library array, motif 4 ND N98R;D124A (synthetic construct, N98R;D124A)
T1 chain: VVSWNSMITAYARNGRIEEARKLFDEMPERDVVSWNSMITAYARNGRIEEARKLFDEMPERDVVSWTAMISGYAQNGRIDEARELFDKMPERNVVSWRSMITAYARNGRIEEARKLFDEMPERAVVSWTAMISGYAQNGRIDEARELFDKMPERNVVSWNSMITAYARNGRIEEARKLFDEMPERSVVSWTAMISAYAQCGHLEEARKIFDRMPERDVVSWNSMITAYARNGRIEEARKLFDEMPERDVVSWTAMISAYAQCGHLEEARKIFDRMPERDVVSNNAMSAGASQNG

[2] = biological target: T2, GFP-9S library array, motif 4 ND N98I;D124R (synthetic construct, N98I;D124R)
T2 chain: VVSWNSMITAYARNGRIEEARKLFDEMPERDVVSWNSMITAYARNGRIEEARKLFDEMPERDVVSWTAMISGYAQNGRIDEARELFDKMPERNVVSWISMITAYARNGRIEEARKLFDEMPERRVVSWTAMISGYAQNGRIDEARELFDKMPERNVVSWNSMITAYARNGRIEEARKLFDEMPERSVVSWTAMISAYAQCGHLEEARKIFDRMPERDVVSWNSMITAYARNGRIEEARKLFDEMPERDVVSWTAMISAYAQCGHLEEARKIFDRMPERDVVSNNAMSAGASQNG

[3] = biological target: T3, GFP-9S library array, motif 4 ND N98H;D124F (synthetic construct, N98H;D124F)
T3 chain: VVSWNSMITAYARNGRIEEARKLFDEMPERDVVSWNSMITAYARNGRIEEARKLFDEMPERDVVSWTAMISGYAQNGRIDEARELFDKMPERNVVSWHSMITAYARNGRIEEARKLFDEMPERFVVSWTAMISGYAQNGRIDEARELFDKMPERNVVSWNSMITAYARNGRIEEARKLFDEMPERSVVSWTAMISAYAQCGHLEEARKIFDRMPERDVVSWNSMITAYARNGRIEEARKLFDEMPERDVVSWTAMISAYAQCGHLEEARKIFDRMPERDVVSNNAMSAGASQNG

[4] = biological target: T4, GFP-9S library array, motif 4 ND N98I;D124E (synthetic construct, N98I;D124E)
T4 chain: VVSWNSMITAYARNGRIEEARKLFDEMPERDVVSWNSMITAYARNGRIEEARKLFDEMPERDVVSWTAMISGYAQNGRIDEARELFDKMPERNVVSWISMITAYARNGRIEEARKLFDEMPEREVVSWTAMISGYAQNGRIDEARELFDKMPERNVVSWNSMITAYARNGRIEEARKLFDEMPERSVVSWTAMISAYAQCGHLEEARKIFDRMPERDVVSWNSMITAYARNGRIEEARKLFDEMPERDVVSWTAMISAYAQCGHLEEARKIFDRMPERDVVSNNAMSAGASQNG

[5] = biological target: T5, GFP-9S library array, motif 4 ND N98S (synthetic construct, N98S)
T5 chain: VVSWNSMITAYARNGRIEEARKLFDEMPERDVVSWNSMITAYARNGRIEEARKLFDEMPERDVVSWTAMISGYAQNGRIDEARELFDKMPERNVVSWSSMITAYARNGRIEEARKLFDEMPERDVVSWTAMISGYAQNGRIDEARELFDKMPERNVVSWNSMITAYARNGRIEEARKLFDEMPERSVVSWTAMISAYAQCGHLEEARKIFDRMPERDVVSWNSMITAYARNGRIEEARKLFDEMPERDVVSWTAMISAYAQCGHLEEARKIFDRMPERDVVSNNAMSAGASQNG

In the case of AUUAAACGUGA (ssRNA) [IR-rpoA-A], the Kd ([1]; label: 5' IRDye 800CW) is reported as 145 nM, the Kd ([2]; label: 5' IRDye 800CW) is reported as 168 nM and the Kd ([3]; label: 5' IRDye 800CW) is reported as 320 nM. For the same binder, the Kd ([4]; label: 5' IRDye 800CW) was 48.6 nM and the Kd ([5]; label: 5' IRDye 800CW) was 574 nM.

Binder AUUAGACGUGA (ssRNA) [Cy5-rpoA-G] has a Kd ([1]; label: 5' Cy5) of 89.4 nM, a Kd ([2]; label: 5' Cy5) of 97.3 nM and a Kd ([3]; label: 5' Cy5) of 134 nM. For the same binder, the Kd ([4]; label: 5' Cy5) was 78.6 nM and the Kd ([5]; label: 5' Cy5) was 17.2 nM.

AUUAUACGUGA (ssRNA) [IR-rpoA-U] was tested, and the Kd ([1]; label: 5' IRDye 800CW) was 114 nM, the Kd ([2]; label: 5' IRDye 800CW) was 113 nM and the Kd ([3]; label: 5' IRDye 800CW) was 204 nM. It also gave a Kd ([4]; label: 5' IRDye 800CW) of 43.1 nM and a Kd ([5]; label: 5' IRDye 800CW) of 262 nM.

Work on AUUACACGUGA (ssRNA) [Cy5-rpoA] yielded a Kd ([1]; label: 5' Cy5) of 75.1 nM, a Kd ([2]; label: 5' Cy5) of 86.4 nM and a Kd ([3]; label: 5' Cy5) of 140 nM. The Kd ([4]; label: 5' Cy5) was 97.2 nM and the Kd ([5]; label: 5' Cy5) was 413 nM.
